The experiment deals with Ty1 nanobody, biotinylated on the C-terminus (alpaca). In words: BLI; comparative binding test; biotinylated nanobody on streptavidin (SAX) biosensors at about 0.7 nm, dipped into monomeric RBD at 550 nM; 2xPBS with 0.05% Tween-20; Octet RED. On the technique in general: BLI is a label-free optical method that tracks binding on a fibre tip over time.
Chain of Ty1 nanobody, biotinylated on the C-terminus (alpaca) (VHH, as listed by the source): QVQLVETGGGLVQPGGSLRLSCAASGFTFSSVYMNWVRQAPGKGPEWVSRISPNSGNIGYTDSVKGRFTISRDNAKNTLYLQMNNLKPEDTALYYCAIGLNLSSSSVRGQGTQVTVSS

“SARS-CoV-2 spike receptor-binding domain (RBD) (from UniProt P0DTC2 319-541) (domain or fragment)”: the BLI response at 550 nM RBD stood at 1.5 nm.

Source of the values: PMC7473855.
